US5316935A, “Subtilisin variants suitable for hydrolysis and synthesis in organic media” (California Institute of Technology, priority 1992, dated 1994)
Changes are numbered by the printed parent chain. In names and notes the source's numbering stands. Starred links: 1 amine or outer side, 2 acyl side, 3 side chain; linkers in the order of their positions; H or OH if unused. Residues, ends and D or L forms follow the SMILES beside them. *: point of attachment. pNA = O=[N+]([O-])c1ccc(N*)cc1; Suc = O=C(CCC(=O)[*:2])[*:1]

Legend:
[1] = molecular target: T1, Bacillus subtilis subtilisin E variant Q103R (Bacillus subtilis, UniProt P04189, A256V/Q209R); experiment: Amidase activity: hydrolysis of p-nitroanilide peptide substrates; format: biochemical; details: 0.1M Tris-HCl, 10 mM CaCl2, pH 8, 37° C.
T1 construct: each contain 275 residues; made in house; host or cells: Bacillus subtilis DB428 (vector pKWC), secreted into the medium
T1 sequence (P04189 107-381 Q209R/A256V): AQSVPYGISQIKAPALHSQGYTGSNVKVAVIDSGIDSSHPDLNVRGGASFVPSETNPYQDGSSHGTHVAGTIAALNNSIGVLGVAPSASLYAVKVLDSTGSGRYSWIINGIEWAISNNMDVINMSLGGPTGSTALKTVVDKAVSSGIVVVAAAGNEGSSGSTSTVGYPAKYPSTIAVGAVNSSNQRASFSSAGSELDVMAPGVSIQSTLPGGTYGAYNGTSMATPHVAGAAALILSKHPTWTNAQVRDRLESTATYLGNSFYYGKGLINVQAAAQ
Experimental: (§1) The amidase activities of subtilisin and derivatives thereof were measured on the substrate succinyl-Ala-Ala-Pro-Phe-p-nitroanilide (sAAPF-pna) at 37° C. in 0.1M Tris-HCl, pH 8.0 and 10 mM CaCl2. Assays were initiated by mixing the enzyme, the substrate and the reaction buffer. The amount of released p-nitroaniline was measured spectrophotometrically at 410 nm as a function of time. KM and kcat values for hydrolysis of sAAPF-pna by the subtilisin variants were obtained by nonlinear regression of the data using the program Enzfitter (Biosoft).
(§2) For activity measurements in mixed buffer (containing DMF), a portion of the aqueous buffer was replaced by the percentage (w/v) of DMF indicated in Table II. Kinetic constants are reported in Table II for the wild-type enzyme and six variants with 3-10 amino acid substitutions in 20% and 40% DMF.
(§3) The effects of different amino acid substitutions at position 103 on amidase activity were investigated. The variants Q103E, Q103K, and Q103S were constructed by PCR site-directed mutagenesis as described in Example VIII. The amidase activities of these variants and the variant Q103R identified by random mutagenesis and screening for enhanced activity in the presence of DMF (Example IV) are compared in Table III. The reactions were carried out in 10% DMF according to the procedures outlined in Examples XI and XII.
(§4) The effects of the Q103R amino acid substitution on amidase activity were investigated for two substrates, succinyl-Ala-Ala-Pro-Phe-p-nitroanilide (negatively-charged succinyl group at the peptide N-terminus) and Ala-Ala-Pro-Phe-p-nitroanilide (positively charged N-terminus) in 10% DMF.

[2] = molecular target: T2, Bacillus subtilis subtilisin E (subtilisin I168, aprA gene product), wild type, SEQ ID NO: 1 (Bacillus subtilis, UniProt P04189); experiment: Transesterification of methyl ester to ethyl ester in organic solvents; format: biochemical; details: 1M ethanol, 32° C.
T2 construct: each contain 275 residues; made in house; host or cells: Bacillus subtilis DB428 (vector pKWC), secreted into the medium
Experimental: (§5) The activity of the D60N+Q103R+N218S (3M) subtilisin E triple variant was compared to that of the wild-type enzyme for the transesterification of N-acetyl-L-phenylalanine methyl ester to the ethyl ester in three organic solvents. The reactions were carried out in 2 mL volumes of the indicated solvent, containing 1 mg/mL of enzyme, 100 mM N-acetyl-L-phenylalanine methyl ester, 1M ethanol. The samples were incubated, with shaking, at 32° C., and the formation of the ethyl ester product was measured by capillary gas chromatography. Values of the kinetic constants kcat /KM are given in Table VII for the wild-type and 3M variant enzymes. In all three solvents, anhydrous hexane, hexane containing 0.1% water, and acetonitrile containing 0.1% water, the D60N+Q103R+N218S (3M) triple variant was considerably more efficient than the wild-type enzyme.

[3] = molecular target: T3, Bacillus subtilis subtilisin E variant 3M (D60N + Q103R + N218S) (Bacillus subtilis, UniProt P04189, A256V/D166N/N324S/Q209R); experiment: as above; format: biochemical; details: 1M ethanol, 32° C.
T3 construct: each contain 275 residues; made in house; host or cells: Bacillus subtilis DB428 (vector pKWC), secreted into the medium
T3 sequence (P04189 107-381 D166N/Q209R/A256V/N324S): T1 sequence (P04189 107-381 Q209R/A256V) with D60N, N218S
Experimental: as §5

[4] = substrate: C[C@H](NC(=O)CCC(=O)O)C(=O)N[C@@H](C)C(=O)N1CCC[C@H]1C(=O)N[C@@H](Cc1ccccc1)C(=O)Nc1ccc([N+](=O)[O-])cc1; experiment: Amidase activity: hydrolysis of p-nitroanilide peptide substrates; format: biochemical, Bacillus subtilis; details: other: 0% DMF, 0.1M Tris-HCl, 10 mM CaCl2, pH 8, 37° C.
Experimental: as §1, §2

[5] = substrate: C[C@H](N)C(=O)N[C@@H](C)C(=O)N1CCC[C@H]1C(=O)N[C@@H](Cc1ccccc1)C(=O)Nc1ccc([N+](=O)[O-])cc1; experiment: as above; format: biochemical, Bacillus subtilis; details: other: 10% DMF (Table IV), 0.1M Tris-HCl, 10 mM CaCl2, pH 8, 37° C.
[6] = substrate: C[C@H](NC(=O)CCC(=O)O)C(=O)N[C@@H](C)C(=O)N1CCC[C@H]1C(=O)N[C@@H](Cc1ccccc1)C(=O)Nc1ccc([N+](=O)[O-])cc1; experiment: as above; format: biochemical, Bacillus subtilis; details: 0.1M Tris-HCl, 10 mM CaCl2, pH 8, 37° C.
[7] = substrate: C[C@H](NC(=O)CCC(=O)O)C(=O)N[C@@H](C)C(=O)N1CCC[C@H]1C(=O)N[C@@H](Cc1ccccc1)C(=O)Nc1ccc([N+](=O)[O-])cc1; experiment: Amidase activity: hydrolysis of p-nitroanilide peptide substrate; format: biochemical, Bacillus subtilis; details: other: 0% DMF, 0.1M Tris-HCl, 10 mM CaCl2, pH 8, 37° C.
Experimental: as §1, §2

[8] = substrate: C[C@H](NC(=O)CCC(=O)O)C(=O)N[C@@H](C)C(=O)N1CCC[C@H]1C(=O)N[C@@H](Cc1ccccc1)C(=O)Nc1ccc([N+](=O)[O-])cc1; experiment: Amidase activity: hydrolysis of p-nitroanilide peptide substrates; format: biochemical, Bacillus subtilis; details: 0.1M Tris-HCl, 10 mM CaCl2, pH 8, 37° C.; remark: listed apart in the source
Experimental: as §1, §2, §3, §4

[9] = substrate: C[C@H](NC(=O)CCC(=O)O)C(=O)N[C@@H](C)C(=O)N1CCC[C@H]1C(=O)N[C@@H](Cc1ccccc1)C(=O)Nc1ccc([N+](=O)[O-])cc1; experiment: Amidase activity: hydrolysis of p-nitroanilide peptide substrate; format: biochemical, Bacillus subtilis; details: other: 10% DMF, 0.1M Tris-HCl, 10 mM CaCl2, pH 8, 37° C.
Experimental: as §1, §2, §3

T2 sequence (P04189 107-381): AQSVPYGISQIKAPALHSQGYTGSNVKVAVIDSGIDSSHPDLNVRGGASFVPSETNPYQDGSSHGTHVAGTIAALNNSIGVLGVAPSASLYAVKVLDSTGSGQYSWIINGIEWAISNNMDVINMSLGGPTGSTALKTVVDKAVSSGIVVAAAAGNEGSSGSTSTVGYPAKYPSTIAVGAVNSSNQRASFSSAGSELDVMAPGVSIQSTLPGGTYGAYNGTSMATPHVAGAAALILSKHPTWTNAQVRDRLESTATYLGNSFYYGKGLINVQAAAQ

## C[C@H](N)C(=O)N[C@@H](C)C(=O)N1CCC[C@H]1C(=O)N[C@@H](Cc1ccccc1)C(=O)Nc1ccc([N+](=O)[O-])cc1 [AAPFpna, Ala-Ala-Pro-Phe-p-nitroanilide] (H-AAPF-pNA)
[1]; 10% DMF (Table IV)
  Km: ≥ 37 mM
  kcat: ≥ 2.6 s⁻¹
  kcat /KM: 0.07 M^-1 s^-1 × 10^3

## COC(=O)[C@H](Cc1ccccc1)NC(C)=O [N-acetyl-L-phenylalanine methyl ester]
[2]; Ch3 CN (0.1% water)
  kcat /KM: 0.3 Min^-1 mg^-1 × 10^-3
[2]; hexane (0.1% water)
  kcat /KM: 5 Min^-1 mg^-1 × 10^-3
[2]; hexane (anhydrous)
  kcat /KM: 0.4 Min^-1 mg^-1 × 10^-3
[3]; Ch3 CN (0.1% water)
  kcat /KM: 3.1 Min^-1 mg^-1 × 10^-3
[3]; hexane (0.1% water)
  kcat /KM: 220 Min^-1 mg^-1 × 10^-3
[3]; hexane (anhydrous)
  kcat /KM: 17 Min^-1 mg^-1 × 10^-3

## C[C@H](NC(=O)CCC(=O)O)C(=O)N[C@@H](C)C(=O)N1CCC[C@H]1C(=O)N[C@@H](Cc1ccccc1)C(=O)Nc1ccc([N+](=O)[O-])cc1 [succinyl-Ala-Ala-Pro-Phe-p-nitroanilide] (Suc-AAPF-pNA)
[1]; 20% DMF
  kcat /KM: 6.8 M^-1 s^-1 × 10^-3

B1: Bacillus subtilis subtilisin E (subtilisin I168, aprA gene product), wild type, SEQ ID NO: 1 (Bacillus subtilis subsp. subtilis str. 168) (protein)
chain: T1 sequence (P04189 107-381 Q209R/A256V) with R103Q, V150A
notes: each contain 275 residues; made in house; host or cells: Bacillus subtilis DB428 (vector pKWC), secreted into the medium
[4]
  Km: 560 µM
  kcat: 21 s⁻¹
  kcat/Km: 38 M^-1 s^-1 × 10^3
[5]
  Km: 7.8 mM
  kcat: 0.83 s⁻¹
  kcat/Km: 0.11 M^-1 s^-1 × 10^3
[6]; other: 10% DMF (Table III)
  Km: 2900 µM
  kcat: 20 s⁻¹
  kcat/Km: 7.0 M^-1 s^-1 × 10^3
[6]; other: 10% DMF (Table IV)
  Km: 510 µM
  kcat: 21 s⁻¹
  kcat/Km: 41 M^-1 s^-1 × 10^3

B2: Bacillus subtilis subtilisin E variant 7M (D60N + Q103R + N218S + D97G + E156G + N181S + G131D) (Bacillus subtilis subsp. subtilis str. 168; … (protein)
chain: T1 sequence (P04189 107-381 Q209R/A256V) with D60N, D97G, G131D, E156G, N181S, N218S
[7]
  Km: 30 µM
  kcat: 18 s⁻¹
  kcat/Km: 606 M^-1 s^-1 × 10^3

B3: Bacillus subtilis subtilisin E variant 4M (D60N + Q103R + N218S + D97G) (Bacillus subtilis subsp. subtilis str. 168; A256V/D166N/D203G/N324S/Q209R) (protein)
chain: T1 sequence (P04189 107-381 Q209R/A256V) with D60N, D97G, N218S
notes: as for B1
[7]
  Km: 170 µM
  kcat: 43 s⁻¹
  kcat/Km: 249 M^-1 s^-1 × 10^3

B4: Bacillus subtilis subtilisin E variant 3M (D60N + Q103R + N218S) (Bacillus subtilis subsp. subtilis str. 168; A256V/D166N/N324S/Q209R) (protein)
chain: T1 sequence (P04189 107-381 Q209R/A256V) with D60N, N218S
notes: as for B1
[7]
  Km: 110 µM
  kcat: 40 s⁻¹
  kcat/Km: 360 M^-1 s^-1 × 10^3

B5: Bacillus subtilis subtilisin E variant Q103R (Bacillus subtilis subsp. subtilis str. 168; A256V/Q209R) (protein)
chain: T1 sequence (P04189 107-381 Q209R/A256V)
notes: as for B1
[8]; other: 0% DMF
  Km: 250 µM
  kcat: 31 s⁻¹
[8]; other: 10% DMF (Table III)
  Km: 1300 µM
  kcat: 34 s⁻¹
  kcat/Km: 26 M^-1 s^-1 × 10^3

B6: Bacillus subtilis subtilisin E variant Q103S (Bacillus subtilis subsp. subtilis str. 168; A256V/Q209S) (protein)
chain: T1 sequence (P04189 107-381 Q209R/A256V) with R103S
notes: as for B1
[9]
  Km: 3 mM
  kcat: 20 s⁻¹
  kcat/Km: 7.0 M^-1 s^-1 × 10^3

B7: Bacillus subtilis subtilisin E variant 6M (D60N + Q103R + N218S + D97G + E156G + N181S) (Bacillus subtilis subsp. subtilis str. 168; … (protein)
chain: T1 sequence (P04189 107-381 Q209R/A256V) with D60N, D97G, E156G, N181S, N218S
[7]
  Km: 40 µM
  kcat: 12 s⁻¹
  kcat/Km: 268 M^-1 s^-1 × 10^3
